Source: paper PMC4082962

Target: Cdc42, endogenous in human mammary epithelial cells (human (endogenous in MCF10A and HMEC)) (UniProt P60953)
Assay: pull-down

Chain of UniProt P60953 (P60953 whole entry): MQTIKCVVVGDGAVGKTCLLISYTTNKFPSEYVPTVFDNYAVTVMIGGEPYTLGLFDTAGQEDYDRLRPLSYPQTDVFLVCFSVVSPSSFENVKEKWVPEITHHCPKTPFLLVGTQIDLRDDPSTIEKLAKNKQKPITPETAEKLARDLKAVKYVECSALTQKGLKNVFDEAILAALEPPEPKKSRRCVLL

TβRIII-T841A (β-arrestin2 binding deficient) (from UniProt Q03167 21-851) (receptor)
percent decrease of the pull-down relative to TβRIII: 70%

TβRIIIΔCyto (TβRIII lacking cytoplasmic domain) (domain or fragment)
percent decrease of the pull-down relative to TβRIII: 60%
